Measured values published in patent publication US20220348663A1 (Y BIOLOGICS, published 2022).
Where a chain is given by its changes, count along the chain named.

T1: human B7-H3 antigen (Octet) (human, UniProt Q5ZPR3 29-466, limits assumed)
T1 construct: Soluble antigen in the BLI assay
T1 sequence: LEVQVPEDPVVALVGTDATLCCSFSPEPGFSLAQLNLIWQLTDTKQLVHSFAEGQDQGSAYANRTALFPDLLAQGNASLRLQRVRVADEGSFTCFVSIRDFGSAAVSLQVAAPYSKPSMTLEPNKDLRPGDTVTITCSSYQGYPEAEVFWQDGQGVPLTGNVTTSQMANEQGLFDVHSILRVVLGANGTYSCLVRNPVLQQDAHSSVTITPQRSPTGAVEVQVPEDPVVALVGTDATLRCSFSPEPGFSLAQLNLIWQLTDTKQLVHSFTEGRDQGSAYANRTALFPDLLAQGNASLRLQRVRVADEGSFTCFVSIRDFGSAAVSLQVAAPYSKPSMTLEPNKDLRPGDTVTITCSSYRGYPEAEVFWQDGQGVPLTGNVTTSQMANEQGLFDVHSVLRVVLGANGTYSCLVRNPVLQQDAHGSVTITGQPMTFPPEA

T2: Mouse B7-H3 (#50973-M08H, Sino) (mouse, UniProt Q8VE98 29-244)
T2 construct: Bought protein; also called mouse B7-H3 antigen
T2 sequence (looked up): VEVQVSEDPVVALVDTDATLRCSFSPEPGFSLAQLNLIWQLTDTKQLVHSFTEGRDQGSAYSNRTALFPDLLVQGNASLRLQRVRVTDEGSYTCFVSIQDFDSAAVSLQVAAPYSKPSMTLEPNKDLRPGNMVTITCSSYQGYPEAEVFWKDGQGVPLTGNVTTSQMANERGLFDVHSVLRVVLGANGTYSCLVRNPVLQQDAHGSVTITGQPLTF

T3: rat B7-H3 (#80380-R08H, Sino) (rat, UniProt Q7TPB4 29-244)
T3 construct: Bought protein; also called rat B7-H3 antigen
T3 sequence (looked up): T2 sequence (looked up) with A33R, S62A, N131D, V156L, L214M

B1: CD276-040F10 (antibody, V domains shown)
VH: QVQLVESGAEVKKPGASVKLSCKASGYTFSSYWMHWVRQAPGQRLEWMGEINPGNGHTNYNEKFKSRVTITVDKSASTAYMELSSLRSEDTAVYYCVADPRRPKVPTALFVYWGQGTLVTVSS
VL: DIQMTQSPSSVSASVGDRVTISCRASQGIGTWLAWYQQKPGKAPRLLIYAASSLDSGVPSRFSASGSGTDFTLTISSLQPEDFATYYCQQAINFPITFGQGTRLEIK
notes: Converted from scFv to IgG form
B2: CD276-039C05 (antibody, V domains shown)
VH: QVQLVESGAEVKKPGSSVKVSCKASGGTFSSYAISWVRQAPGQGLEWMGRIIPILGIANYAQKFQGRVTITADKSTSTAYMELSSLRSEDTAVYYCANGGDSSSWYTFDYWGQGTLITVSS
VL: DIQMTQSPSTLSASVGDKLTLTCRASQSISRWLAWYQQKPGKAPKLLIYKASYLQTGVPSRFSGSGTGTEFTLTISSLQPDDFATYYCQQYNTFPLTFAGGTKVEIK
notes: Converted from scFv to IgG form; Parent of the _LS_ light-chain variants

Columns and labels:
[1] = target: T1, human B7-H3 antigen (Octet); test: BLI (Octet QK), antibody captured on AHC biosensor, B7-H3 antigen 30-0.24 nM, 1:1 global fit
[2] = target: T2, Mouse B7-H3 (#50973-M08H, Sino); test: ELISA on coated Mouse B7H3, OD450nm
[3] = target: T3, rat B7-H3 (#80380-R08H, Sino); test: ELISA on coated Rat B7H3, OD450nm

Row | Binder | Kd [1] [nM] | binding result [2] | binding result [3]
1 | B1 | 0.06 | – | –
2 | B2 | – | binds | binds
